Experimental data published in paper PMC9841417 (Nucleic Acids Research, 2023).

B1: Full-length Lhr H1199A-R1206A-R1286A (natural protein, Mycobacterium smegmatis, UniProt A0QT91 1-1507, looked up)
chain: MTTNGADPLGRFSALTREWFTTAFAAPTPAQADAWSAISEGNNTLVIAPTGSGKTLAAFLWAIDRLADPAREPSQGTQVLYVSPLKALAVDVERNLRTPLTGITRVAERHGLPAPSITVGVRSGDTPPNQRRAMIANPPDVLITTPESLFLMLTSAARETLTSVRTVIVDEVHAVAATKRGAHLALSLERLDQLLDTPAQRIGLSATVRPPEEVARFLSGQAPTTIVCPPAAKTFDLSVQVPVPDMANLDNNSIWPDVEERIVDLVEAHNSSIVFANSRRLAERLTSRLNEIHAERSGIELPAGPNPEVGGGAPAHLMGSGQANGAPPLLARAHHGSVSKEQRAQVEDDLKSGRLRAVVATSSLELGIDMGAVDLVIQVEAPPSVASGLQRVGRAGHQVGEISQGVLFPKHRTDLIGCAVTVQRMQTGDIETLRVPANPLDVLAQHTVAVAALEPVDADAWFDAVRRSAPFATLPRSAFEATLDLLSGKYPSTEFAELRPRLVYDRDTGTLTARPGAQRLAVTSGGAIPDRGMFTVYLASETEKPSRVGELDEEMVYESRPGDVISLGATSWRITEITHDRVLVIPAPGQPARLPFWRGDSVGRPAELGAAVGAFTGELASLDRKAFDKRCQKMGFAGYATDNLHQLLREQREATGVVPSDTTFVVERFRDELGDWRVILHSPYGLRVHGPLALAVGRRLRERYGIDEKPTASDDGIIVRLPDSGDTPPGADLFVFDADEIEPIVTAEVGGSALFASRFRECAARALLLPRRHPGKRSPLWHQRQRAAQLLDIARKYPDFPIVLEAVRECLQDVYDVPALIELMHKIAQRRLRIVEVETATPSPFAASLLFGYVGAFMYEGDSPLAERRAAALALDTVLLSELLGRVELRELLDPAVVASTSAQLQHLTPERAARDAEGVADLLRLLGPLTEADIAQRCTADNIGAWLDGLHAAKRALPVTYAGQTWWAAVEDIGLLRDGIGVPVPVGVPAAFTESASDPLGDLIGRYARTRGPFTTEQTAARFGLGVRVASDVLSRMAVDGRLIRGEFAADLSGEQWCDAQVLKILRRRSLAALRAQVEPVSTDAYARFLPSWQHVGSTNTTGIDGLATVIEQLAGVPIPASAVESLVFPQRVRDYQPAMLDELLASGEVMWSGAGQIGNGDGWVAFHLADTAPLTLTHGAEIEFTDTHRVILETLGAGGAYFFAQLTDGTVEGTAGQELKQALWELIWAGWVTGDTFAPVRAVLSGPRRSGAPAHRQRQRPPRLSRYSVAHAQTRGTDPTVSGAWSALPAAEPDSTVRAHFQAELLLGRHGVLTKGAVGAEGVPGGFATLYKVLSTFEDAGRCQRGYFVESLGGAQFAVASTVDRLRSYLDNVDPERPEYHAVVLAATDPANPYGAALGWPTDSEAHRPGRKAGALVALVDGRLVWFLERGGRSLLSFGADADAQRAAAGALTDLVSAGRIPSLLVERINGVAVLDPDVDAERAVVQDALLGAGLSRTPRGLRLR
B2: Lhr-CTD (aa 863-1507) R915A-T1100A-D1366A (domain or fragment, Mycobacterium smegmatis, UniProt A0QT91 863-1507, looked up)
chain: SPLAERRAAALALDTVLLSELLGRVELRELLDPAVVASTSAQLQHLTPERAAADAEGVADLLRLLGPLTEADIAQRCTADNIGAWLDGLHAAKRALPVTYAGQTWWAAVEDIGLLRDGIGVPVPVGVPAAFTESASDPLGDLIGRYARTRGPFTTEQTAARFGLGVRVASDVLSRMAVDGRLIRGEFAADLSGEQWCDAQVLKILRRRSLAALRAQVEPVSTDAYARFLPSWQHVGSANTTGIDGLATVIEQLAGVPIPASAVESLVFPQRVRDYQPAMLDELLASGEVMWSGAGQIGNGDGWVAFHLADTAPLTLTHGAEIEFTDTHRVILETLGHGGAYFFRQLTDGTVEGTAGQELKQALWELIWAGWVTGDTFAPVRAVLSGPRRSGAPAHRQRQRPPRLSRYSVAHAQTRGTDPTVSGRWSALPAAEPDSTVRAHFQAELLLGRHGVLTKGAVGAEGVPGGFATLYKVLSTFEDAGRCQRGYFVESLGGAQFAVASTVARLRSYLDNVDPERPEYHAVVLAATDPANPYGAALGWPTDSEAHRPGRKAGALVALVDGRLVWFLERGGRSLLSFGADADAQRAAAGALTDLVSAGRIPSLLVERINGVAVLDPDVDAERAVVQDALLGAGLSRTPRGLRLR
B3: Lhr-CTD (aa 863-1507) H1199A-R1206A-R1286A (domain or fragment, Mycobacterium smegmatis, UniProt A0QT91 863-1507, looked up)
chain: SPLAERRAAALALDTVLLSELLGRVELRELLDPAVVASTSAQLQHLTPERAARDAEGVADLLRLLGPLTEADIAQRCTADNIGAWLDGLHAAKRALPVTYAGQTWWAAVEDIGLLRDGIGVPVPVGVPAAFTESASDPLGDLIGRYARTRGPFTTEQTAARFGLGVRVASDVLSRMAVDGRLIRGEFAADLSGEQWCDAQVLKILRRRSLAALRAQVEPVSTDAYARFLPSWQHVGSTNTTGIDGLATVIEQLAGVPIPASAVESLVFPQRVRDYQPAMLDELLASGEVMWSGAGQIGNGDGWVAFHLADTAPLTLTHGAEIEFTDTHRVILETLGAGGAYFFAQLTDGTVEGTAGQELKQALWELIWAGWVTGDTFAPVRAVLSGPRRSGAPAHRQRQRPPRLSRYSVAHAQTRGTDPTVSGAWSALPAAEPDSTVRAHFQAELLLGRHGVLTKGAVGAEGVPGGFATLYKVLSTFEDAGRCQRGYFVESLGGAQFAVASTVDRLRSYLDNVDPERPEYHAVVLAATDPANPYGAALGWPTDSEAHRPGRKAGALVALVDGRLVWFLERGGRSLLSFGADADAQRAAAGALTDLVSAGRIPSLLVERINGVAVLDPDVDAERAVVQDALLGAGLSRTPRGLRLR

Target: the molecule itself
Assay: SEC

| Protein | stoichiometry N |
| --- | --- |
| B1 | 2 |
| B2 | 4 |
| B3 | 2 |
